Results from patent US20080241172A1 (CENTRE NATIONAL DE LA RECHERCHE SCIENTIFIQUE, published 2008).

B1: Torpedo AChET mutant S19C (containing two cysteines at positions 19 and 37) (enzyme)
chain: DDDSELLVNTKSGKVMRTRIPVLSSHISAFLGIPFAEPPVGNMRFRRPEPKKPWSGVWNASTYPNNCQQYVDEQFPGFPGSEMWNPNREMSEDCLYLNIWVPSPRPKSATVMLWIYGGGFYSGSSTLDVYNGKYLAYTEEVVLVSLSYRVGAFGFLALHGSQEAPGNMGLLDQRMALQWVHDNIQFFGGDPKTVTLFGESAGRASVGMHILSPGSRDLFRRAILQSGSPNCPWASVSVAEGRRRAVELRRNLNCNLNSDEDLIQCLREKKPQELIDVEWNVLPFDSIFRFSFVPVIDGEFFPTSLESMLNAGNFKKTQILLGVNKDEGSFFLLYGAPGFSKDSESKISREDFMSGVKLSVPHANDLGLDAVTLQYTDWMDDNNGIKNRDGLDDIVGDHNVICPLMHFVNKYTKFGNGTYLYFFNHRASNLVWPEWMGVIHGYEIEFVFGLPLVKELNYTAEEEALSRRIMHYWATFAKTGNPNEPHSQESKWPLFTTKEQKFIDLNTEPIKVHQRLRVQMCVFWNQFLPKLLNATETIDEAERQWKTEFHRWSCYMMHWKNQFDQYSRHENCAEL
notes: It may include a signal peptide; also called mutated torpedo AChE
B2: Torpedo AChET mutant with H34 of the t peptide replaced by a cysteine (enzyme)
chain: DDDSELLVNTKSGKVMRTRIPVLSSHISAFLGIPFAEPPVGNMRFRRPEPKKPWSGVWNASTYPNNCQQYVDEQFPGFPGSEMWNPNREMSEDCLYLNIWVPSPRPKSATVMLWIYGGGFYSGSSTLDVYNGKYLAYTEEVVLVSLSYRVGAFGFLALHGSQEAPGNMGLLDQRMALQWVHDNIQFFGGDPKTVTLFGESAGRASVGMHILSPGSRDLFRRAILQSGSPNCPWASVSVAEGRRRAVELRRNLNCNLNSDEDLIQCLREKKPQELIDVEWNVLPFDSIFRFSFVPVIDGEFFPTSLESMLNAGNFKKTQILLGVNKDEGSFFLLYGAPGFSKDSESKISREDFMSGVKLSVPHANDLGLDAVTLQYTDWMDDNNGIKNRDGLDDIVGDHNVICPLMHFVNKYTKFGNGTYLYFFNHRASNLVWPEWMGVIHGYEIEFVFGLPLVKELNYTAEEEALSRRIMHYWATFAKTGNPNEPHSQESKWPLFTTKEQKFIDLNTEPIKVHQRLRVQMCVFWNQFLPKLLNATETIDEAERQWKTEFHRWSSYMMHWKNQFDQYSRCENCAEL
B3: Torpedo AChET mutant with M21 of the t peptide replaced by a cysteine (enzyme)
chain: DDDSELLVNTKSGKVMRTRIPVLSSHISAFLGIPFAEPPVGNMRFRRPEPKKPWSGVWNASTYPNNCQQYVDEQFPGFPGSEMWNPNREMSEDCLYLNIWVPSPRPKSATVMLWIYGGGFYSGSSTLDVYNGKYLAYTEEVVLVSLSYRVGAFGFLALHGSQEAPGNMGLLDQRMALQWVHDNIQFFGGDPKTVTLFGESAGRASVGMHILSPGSRDLFRRAILQSGSPNCPWASVSVAEGRRRAVELRRNLNCNLNSDEDLIQCLREKKPQELIDVEWNVLPFDSIFRFSFVPVIDGEFFPTSLESMLNAGNFKKTQILLGVNKDEGSFFLLYGAPGFSKDSESKISREDFMSGVKLSVPHANDLGLDAVTLQYTDWMDDNNGIKNRDGLDDIVGDHNVICPLMHFVNKYTKFGNGTYLYFFNHRASNLVWPEWMGVIHGYEIEFVFGLPLVKELNYTAEEEALSRRIMHYWATFAKTGNPNEPHSQESKWPLFTTKEQKFIDLNTEPIKVHQRLRVQMCVFWNQFLPKLLNATETIDEAERQWKTEFHRWSSYCMHWKNQFDQYSRHENCAEL
B4: Torpedo AChET mutant with residue 3 of the t peptide replaced by a cysteine, with mutation of C37 (C37S) (enzyme)
chain: DDDSELLVNTKSGKVMRTRIPVLSSHISAFLGIPFAEPPVGNMRFRRPEPKKPWSGVWNASTYPNNCQQYVDEQFPGFPGSEMWNPNREMSEDCLYLNIWVPSPRPKSATVMLWIYGGGFYSGSSTLDVYNGKYLAYTEEVVLVSLSYRVGAFGFLALHGSQEAPGNMGLLDQRMALQWVHDNIQFFGGDPKTVTLFGESAGRASVGMHILSPGSRDLFRRAILQSGSPNCPWASVSVAEGRRRAVELRRNLNCNLNSDEDLIQCLREKKPQELIDVEWNVLPFDSIFRFSFVPVIDGEFFPTSLESMLNAGNFKKTQILLGVNKDEGSFFLLYGAPGFSKDSESKISREDFMSGVKLSVPHANDLGLDAVTLQYTDWMDDNNGIKNRDGLDDIVGDHNVICPLMHFVNKYTKFGNGTYLYFFNHRASNLVWPEWMGVIHGYEIEFVFGLPLVKELNYTAEEEALSRRIMHYWATFAKTGNPNEPHSQESKWPLFTTKEQKFIDLNTEPIKVHQRLRVQMCVFWNQFLPKLLNATETCDEAERQWKTEFHRWSSYMMHWKNQFDQYSRHENSAEL
notes: also called 13 (printed; read as I3) with C37S
B5: Torpedo AChET mutant with M21 of the t peptide replaced by a cysteine, with mutation of C37 (C37S) (enzyme)
chain: DDDSELLVNTKSGKVMRTRIPVLSSHISAFLGIPFAEPPVGNMRFRRPEPKKPWSGVWNASTYPNNCQQYVDEQFPGFPGSEMWNPNREMSEDCLYLNIWVPSPRPKSATVMLWIYGGGFYSGSSTLDVYNGKYLAYTEEVVLVSLSYRVGAFGFLALHGSQEAPGNMGLLDQRMALQWVHDNIQFFGGDPKTVTLFGESAGRASVGMHILSPGSRDLFRRAILQSGSPNCPWASVSVAEGRRRAVELRRNLNCNLNSDEDLIQCLREKKPQELIDVEWNVLPFDSIFRFSFVPVIDGEFFPTSLESMLNAGNFKKTQILLGVNKDEGSFFLLYGAPGFSKDSESKISREDFMSGVKLSVPHANDLGLDAVTLQYTDWMDDNNGIKNRDGLDDIVGDHNVICPLMHFVNKYTKFGNGTYLYFFNHRASNLVWPEWMGVIHGYEIEFVFGLPLVKELNYTAEEEALSRRIMHYWATFAKTGNPNEPHSQESKWPLFTTKEQKFIDLNTEPIKVHQRLRVQMCVFWNQFLPKLLNATETIDEAERQWKTEFHRWSSYCMHWKNQFDQYSRHENSAEL
notes: also called M21 with C37S
B6: Torpedo AChET mutant S19C/C37S (enzyme)
chain: DDDSELLVNTKSGKVMRTRIPVLSSHISAFLGIPFAEPPVGNMRFRRPEPKKPWSGVWNASTYPNNCQQYVDEQFPGFPGSEMWNPNREMSEDCLYLNIWVPSPRPKSATVMLWIYGGGFYSGSSTLDVYNGKYLAYTEEVVLVSLSYRVGAFGFLALHGSQEAPGNMGLLDQRMALQWVHDNIQFFGGDPKTVTLFGESAGRASVGMHILSPGSRDLFRRAILQSGSPNCPWASVSVAEGRRRAVELRRNLNCNLNSDEDLIQCLREKKPQELIDVEWNVLPFDSIFRFSFVPVIDGEFFPTSLESMLNAGNFKKTQILLGVNKDEGSFFLLYGAPGFSKDSESKISREDFMSGVKLSVPHANDLGLDAVTLQYTDWMDDNNGIKNRDGLDDIVGDHNVICPLMHFVNKYTKFGNGTYLYFFNHRASNLVWPEWMGVIHGYEIEFVFGLPLVKELNYTAEEEALSRRIMHYWATFAKTGNPNEPHSQESKWPLFTTKEQKFIDLNTEPIKVHQRLRVQMCVFWNQFLPKLLNATETIDEAERQWKTEFHRWSCYMMHWKNQFDQYSRHENSAEL
notes: also called S19 with C37S
B7: Torpedo AChET mutant with T12 of the t peptide replaced by a cysteine, with mutation of C37 (C37S) (enzyme)
chain: DDDSELLVNTKSGKVMRTRIPVLSSHISAFLGIPFAEPPVGNMRFRRPEPKKPWSGVWNASTYPNNCQQYVDEQFPGFPGSEMWNPNREMSEDCLYLNIWVPSPRPKSATVMLWIYGGGFYSGSSTLDVYNGKYLAYTEEVVLVSLSYRVGAFGFLALHGSQEAPGNMGLLDQRMALQWVHDNIQFFGGDPKTVTLFGESAGRASVGMHILSPGSRDLFRRAILQSGSPNCPWASVSVAEGRRRAVELRRNLNCNLNSDEDLIQCLREKKPQELIDVEWNVLPFDSIFRFSFVPVIDGEFFPTSLESMLNAGNFKKTQILLGVNKDEGSFFLLYGAPGFSKDSESKISREDFMSGVKLSVPHANDLGLDAVTLQYTDWMDDNNGIKNRDGLDDIVGDHNVICPLMHFVNKYTKFGNGTYLYFFNHRASNLVWPEWMGVIHGYEIEFVFGLPLVKELNYTAEEEALSRRIMHYWATFAKTGNPNEPHSQESKWPLFTTKEQKFIDLNTEPIKVHQRLRVQMCVFWNQFLPKLLNATETIDEAERQWKCEFHRWSSYMMHWKNQFDQYSRHENSAEL
notes: also called T12 with C37S
B8: Torpedo AChET mutant with A6 of the t peptide replaced by a cysteine, with mutation of C37 (C37S) (enzyme)
chain: DDDSELLVNTKSGKVMRTRIPVLSSHISAFLGIPFAEPPVGNMRFRRPEPKKPWSGVWNASTYPNNCQQYVDEQFPGFPGSEMWNPNREMSEDCLYLNIWVPSPRPKSATVMLWIYGGGFYSGSSTLDVYNGKYLAYTEEVVLVSLSYRVGAFGFLALHGSQEAPGNMGLLDQRMALQWVHDNIQFFGGDPKTVTLFGESAGRASVGMHILSPGSRDLFRRAILQSGSPNCPWASVSVAEGRRRAVELRRNLNCNLNSDEDLIQCLREKKPQELIDVEWNVLPFDSIFRFSFVPVIDGEFFPTSLESMLNAGNFKKTQILLGVNKDEGSFFLLYGAPGFSKDSESKISREDFMSGVKLSVPHANDLGLDAVTLQYTDWMDDNNGIKNRDGLDDIVGDHNVICPLMHFVNKYTKFGNGTYLYFFNHRASNLVWPEWMGVIHGYEIEFVFGLPLVKELNYTAEEEALSRRIMHYWATFAKTGNPNEPHSQESKWPLFTTKEQKFIDLNTEPIKVHQRLRVQMCVFWNQFLPKLLNATETIDECERQWKTEFHRWSSYMMHWKNQFDQYSRHENSAEL
notes: also called A6 with C37S
B9: Torpedo AChET mutant with M22 of the t peptide replaced by a cysteine (enzyme)
chain: DDDSELLVNTKSGKVMRTRIPVLSSHISAFLGIPFAEPPVGNMRFRRPEPKKPWSGVWNASTYPNNCQQYVDEQFPGFPGSEMWNPNREMSEDCLYLNIWVPSPRPKSATVMLWIYGGGFYSGSSTLDVYNGKYLAYTEEVVLVSLSYRVGAFGFLALHGSQEAPGNMGLLDQRMALQWVHDNIQFFGGDPKTVTLFGESAGRASVGMHILSPGSRDLFRRAILQSGSPNCPWASVSVAEGRRRAVELRRNLNCNLNSDEDLIQCLREKKPQELIDVEWNVLPFDSIFRFSFVPVIDGEFFPTSLESMLNAGNFKKTQILLGVNKDEGSFFLLYGAPGFSKDSESKISREDFMSGVKLSVPHANDLGLDAVTLQYTDWMDDNNGIKNRDGLDDIVGDHNVICPLMHFVNKYTKFGNGTYLYFFNHRASNLVWPEWMGVIHGYEIEFVFGLPLVKELNYTAEEEALSRRIMHYWATFAKTGNPNEPHSQESKWPLFTTKEQKFIDLNTEPIKVHQRLRVQMCVFWNQFLPKLLNATETIDEAERQWKTEFHRWSSYMCHWKNQFDQYSRHENCAEL

Target: the molecule itself
Test: homodimers from transfected COS cells; sedimentation in sucrose gradients
Protocol: COS cells were transfected by the DEAE-dextran method, as previously described (Bon et al., 1997), using 4 μg of DNA encoding the AChE catalytic subunit and 4 μg of DNA encoding QN or PRAD-deleted QN, per 100 mm dish. Because Torpedo AChE folds into its active conformation at 27° C., but not at 37° C., the cells were incubated for two days at 37° C. after transfection, then transferred to 27° C. and maintained at this temperature for 3-4 days, in a medium containing 10% Nuserum (Inotech, Dottikon, Switzerland), which had been pretreated with 10⁻⁶ M soman to inactivate serum choline sterases.
Centrifugation was performed in 5-20% sucrose gradients (50 mM Tris-HCl, pH 7.5, 50 mM MgCl₂, either in the presence of 0.2% Brij-97 or in the presence of 0.2% Triton X-100) in a Beckman SW41 rotor, at 36,000 rpm, for 18 h at 6° C. The gradients contained Escherichia coli β-galactosidase (16 S) and alkaline phosphatase (6.1 S) as internal sedimentation standards (Bon et al., 1997). Amphiphilic molecules generally sediment faster in the presence of Triton X100 than of Brij-97, providing an indication on their amphiphilic character.

Binding result, binds:
B1
B2
B3
B4
B5
B6
B7
B8
B9
